Results from article PMC4889046 (PLoS ONE, 2016).

Target: the molecule itself
Assay: cross-linking

B1: APOBEC4 fused to three C-terminal HA-tags (A4-HA) (natural protein, human, UniProt Q8WW27 1-367, looked up)
chain: MEPIYEEYLANHGTIVKPYYWLSFSLDCSNCPYHIRTGEEARVSLTEFCQIFGFPYGTTFPQTKHLTFYELKTSSGSLVQKGHASSCTGNYIHPESMLFEMNGYLDSAIYNNDSIRHIILYSNNSPCNEANHCCISKMYNFLITYPGITLSIYFSQLYHTEMDFPASAWNREALRSLASLWPRVVLSPISGGIWHSVLHSFISGVSGSHVFQPILTGRALADRHNAYEINAITGVKPYFTDVLLQTKRNPNTKAQEALESYPLNNAFPGQFFQMPSGQLQPNLPPDLRAPVVFVLVPLRDLPPMHMGQNPNKPRNIVRHLNMPQMSFQETKDLGRLPTGRSVEIVEITEQFASSKEADEKKKKKGKK
notes: also called A4-3xHA; pA4-HA; not shown: 3xHA, C-terminal, kept
stoichiometry N: 2
